In the supplement of paper PMC10126150:
± gives the standard deviation of the averaged measurements.

Tested on: ATP
Assay: switch fluorescence ratio, 500 uM ATP over buffer (Cy3 cluster intensity, sum of 5 cycles each) (fold (ratio)); higher = stronger signal-on switching upon ATP binding; sequences stand for … in TCGTCGGCAGCGTCAGATGTGTATAAGAGACAGTTTTTTTTTTTTTTTTTTTTTTTTT…TC
Details: aptamer strand: ATP DNA aptamer (quencher-CACCTGGGGGAGTATTGCGGAGGAAGG + anchor), 100 nM annealed; ATP concentration: 500 uM
Method in brief: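 Clusters carrying Cy3-labelled switching strands on a modified Illumina MiSeq flow-cell were annealed to 100 nM quencher-labelled ATP aptamer and imaged in selection buffer. They were imaged again after 15 min with 500 uM ATP at 22 °C, over five buffer/ATP cycles with NaOH stripping and re-annealing in between. For each cluster, the fluorescence ratio is the summed Cy3 intensity of the target cycles divided by that of the buffer cycles, averaged per switch-domain sequence. Clusters outside 100-1000 RFU were left out.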
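Also: ATP exposure 15 min at 22 °C before imaging.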

GGGGGGAGGC and GGGGGGCAAG are within error of each other in switch fluorescence ratio: 0.995 ± 0.028 for the first, 0.9858 ± 0.009 for the second.

First: GGGGGGCAAT
Second: GGGGGGCAGG
The switch fluorescence ratio of the first is higher: 1.2 ± 0.099 for the first, 1.03 ± 0.039 for the second.

GGGGGGCCGC and GGGGGGCCTT are within error of each other in switch fluorescence ratio: 1.03 ± 0.081 for the first, 1 ± 0.04 for the second.

GGGGGGCGAT and GGGGGGCTGG are within error of each other in switch fluorescence ratio: 1.03 ± 0.049 for the first, 0.979 ± 0.025 for the second.

GGGGGGGAAC and GGGGGGGACT are the same in switch fluorescence ratio: 1 ± 0.04 for the first, 1 ± 0.034 for the second.

GGGGGGGATT and GGGGGGGCGA are within error of each other in switch fluorescence ratio: 1.01 ± 0.025 for the first, 0.987 ± 0.041 for the second.

GGGGGGGGGC and GGGGGGGTAC are within error of each other in switch fluorescence ratio: 1.03 ± 0.098 for the first, 1.23 ± 0.62 for the second.

GGGGGGGTAG and GGGGGGGTTC are the same in switch fluorescence ratio: 1 ± 0.021 for the first, 1 ± 0.028 for the second.

GGGGGGTACT and GGGGGGTATC are within error of each other in switch fluorescence ratio: 0.994 ± 0.033 for the first, 1.01 ± 0.03 for the second.

GGGGGGTATG and GGGGGGTGCT are within error of each other in switch fluorescence ratio: 0.982 ± 0.022 for the first, 1.02 ± 0.03 for the second.

First: GGGGGGTTTA
Second: GGGGGTAATT
The switch fluorescence ratio of the first is lower: 1.01 ± 0.029 for the first, 1.1 ± 0.052 for the second.

GGGGGTACAT and GGGGGTAGTA are within error of each other in switch fluorescence ratio: 0.99 ± 0.011 for the first, 1.01 ± 0.044 for the second.

Compared with GGGGGTATAT, GGGGGTATCA is lower in switch fluorescence ratio: 1.03 ± 0.019 for the first, 0.98049 ± 0.00015 for the second.

GGGGGTATCC and GGGGGTCAAT are within error of each other in switch fluorescence ratio: 1.03 ± 0.054 for the first, 1.02 ± 0.04 for the second.

GGGGGTCAGT and GGGGGTCGCA are within error of each other in switch fluorescence ratio: 0.991 ± 0.01 for the first, 0.947 ± 0.069 for the second.

GGGGGTGGAA and GGGGGTGGAC are within error of each other in switch fluorescence ratio: 0.97 ± 0.028 for the first, 1.01 ± 0.052 for the second.

GGGGGTGTGA and GGGGGTTCTA are the same in switch fluorescence ratio: 1.02 ± 0.017 for the first, 1.02 ± 0.011 for the second.

GGGGGTTGAG and GGGGTAAAAA are within error of each other in switch fluorescence ratio: 1.03 ± 0.024 for the first, 1.01 ± 0.018 for the second.

GGGGTAAAGT and GGGGTAATCT are within error of each other in switch fluorescence ratio: 1.01 ± 0.028 for the first, 0.99977 ± 0.00079 for the second.

First: GGGGTAATTC
Second: GGGGTACACG
The switch fluorescence ratio of the first is higher: 1.06 ± 0.039 for the first, 0.979 ± 0.027 for the second.

GGGGTACACT and GGGGTAGAAC are within error of each other in switch fluorescence ratio: 0.9949 ± 0.0056 for the first, 0.992 ± 0.028 for the second.

GGGGTAGAAT and GGGGTATCGC are within error of each other in switch fluorescence ratio: 1.03 ± 0.061 for the first, 1.002 ± 0.0095 for the second.

GGGGTATGAC and GGGGTATGGT are within error of each other in switch fluorescence ratio: 1.02 ± 0.015 for the first, 1 ± 0.036 for the second.

GGGGTCAGTT and GGGGTCCCAG are within error of each other in switch fluorescence ratio: 0.973 ± 0.025 for the first, 0.971 ± 0.03 for the second.

GGGGTCGGTC and GGGGTCGTTT are within error of each other in switch fluorescence ratio: 1 ± 0.023 for the first, 0.9947 ± 0.0067 for the second.

GGGGTCTAAA and GGGGTCTTGG are within error of each other in switch fluorescence ratio: 1.009 ± 0.0063 for the first, 1.03 ± 0.038 for the second.

GGGGTCTTTT and GGGGTGATTG are within error of each other in switch fluorescence ratio: 0.999 ± 0.033 for the first, 0.979 ± 0.0077 for the second.

First: GGGGTGGATT
Second: GGGGTGGCAA
The switch fluorescence ratio of the first is lower: 0.974 ± 0.013 for the first, 1.008 ± 0.0037 for the second.

GGGGTGGCCT and GGGGTGGCGT are within error of each other in switch fluorescence ratio: 1 ± 0.027 for the first, 1.07 ± 0.1 for the second.

GGGGTGGGAT and GGGGTGGGGG are within error of each other in switch fluorescence ratio: 0.998 ± 0.016 for the first, 1.01 ± 0.039 for the second.

GGGGTGGGTC and GGGGTGGGTT are within error of each other in switch fluorescence ratio: 0.974 ± 0.012 for the first, 0.985 ± 0.036 for the second.

GGGGTGGTAT and GGGGTGGTTT are within error of each other in switch fluorescence ratio: 0.99 ± 0.044 for the first, 0.951 ± 0.037 for the second.

GGGGTGTGAG and GGGGTGTTCT are within error of each other in switch fluorescence ratio: 0.989 ± 0.017 for the first, 1.02 ± 0.045 for the second.

GGGGTGTTGC and GGGGTTACTG are within error of each other in switch fluorescence ratio: 0.999 ± 0.056 for the first, 0.993 ± 0.034 for the second.

GGGGTTAGTC and GGGGTTCAAT are within error of each other in switch fluorescence ratio: 1.02 ± 0.0085 for the first, 0.976 ± 0.044 for the second.

GGGGTTCATC and GGGGTTCGTT are within error of each other in switch fluorescence ratio: 0.995 ± 0.022 for the first, 1.01 ± 0.072 for the second.

GGGGTTGAGT and GGGGTTGCCG are within error of each other in switch fluorescence ratio: 1.001 ± 0.005 for the first, 0.992 ± 0.034 for the second.

GGGGTTGCGT and GGGGTTGGCA are within error of each other in switch fluorescence ratio: 0.996 ± 0.034 for the first, 1.03 ± 0.014 for the second.

GGGGTTGGCC and GGGGTTGTTG are within error of each other in switch fluorescence ratio: 0.986 ± 0.018 for the first, 0.988 ± 0.035 for the second.

GGGGTTTGCC and GGGGTTTGCG are within error of each other in switch fluorescence ratio: 0.9678 ± 0.0086 for the first, 0.973 ± 0.011 for the second.

GGGGTTTGGG and GGGGTTTGTC are within error of each other in switch fluorescence ratio: 0.974 ± 0.028 for the first, 0.95 ± 0.049 for the second.

GGGGTTTGTG and GGGGTTTTCT are within error of each other in switch fluorescence ratio: 0.997 ± 0.037 for the first, 1.01 ± 0.016 for the second.

Going from GGGGTTTTTT to GGGTAAAGCT, the switch fluorescence ratio rises from 0.986 ± 0.026 to 1.14 ± 0.018.

GGGTAAAGTC and GGGTAAATTA are within error of each other in switch fluorescence ratio: 0.994 ± 0.047 for the first, 0.989 ± 0.042 for the second.

Compared with GGGTAAGAAG, GGGTAATTAG is higher in switch fluorescence ratio: 0.971 ± 0.013 for the first, 1.03 ± 0.041 for the second.

GGGTAATTGG and GGGTACAGAT are the same in switch fluorescence ratio: 0.986 ± 0.018 for the first, 0.986 ± 0.0099 for the second.

GGGTACAGCT and GGGTACCGAA are within error of each other in switch fluorescence ratio: 1.014 ± 0.0047 for the first, 0.981 ± 0.027 for the second.

First: GGGTACGGAA
Second: GGGTAGAGGG
The switch fluorescence ratio of the first is higher: 1.106 ± 0.01 for the first, 0.987 ± 0.049 for the second.

GGGTAGAGGT and GGGTAGATGC are within error of each other in switch fluorescence ratio: 1.003 ± 0.0062 for the first, 1.01 ± 0.052 for the second.

First: GGGTAGGAAG
Second: GGGTAGGCGC
The switch fluorescence ratio of the first is lower: 0.971 ± 0.024 for the first, 1.04 ± 0.029 for the second.
